Laboratory results reported in patent US20220372154A1 (APEXIGEN, published 2022).

Columns and labels:
[1] = target: T1, cynomolgus TNFR2-His tagged protein (cynomolgus, UniProt A0A2K5VET2 132-366); assay: ELISA on coated cynoTNFR2-His, OD 450 nm
T1 construct: also called Cyno TNFR2; cynomolgus TNFR2 protein; not shown: His tag
T1 sequence: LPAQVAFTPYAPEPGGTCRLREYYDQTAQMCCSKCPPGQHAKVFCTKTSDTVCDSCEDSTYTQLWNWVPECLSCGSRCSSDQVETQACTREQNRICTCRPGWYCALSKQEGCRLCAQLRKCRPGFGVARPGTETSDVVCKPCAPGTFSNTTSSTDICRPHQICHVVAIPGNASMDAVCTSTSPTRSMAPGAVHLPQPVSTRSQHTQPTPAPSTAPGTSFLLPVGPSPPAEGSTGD

[2] = target: T1, cynomolgus TNFR2-His tagged protein; assay: ELISA, cynomolgus TNFR2
[3] = target: T2, human TNFR1-His tagged protein (human, UniProt P19438 30-211, limits assumed); assay: ELISA on coated TNFR1, OD 450 nm
T2 construct: also called soluble human TNFR1; not shown: His tag
T2 sequence (looked up): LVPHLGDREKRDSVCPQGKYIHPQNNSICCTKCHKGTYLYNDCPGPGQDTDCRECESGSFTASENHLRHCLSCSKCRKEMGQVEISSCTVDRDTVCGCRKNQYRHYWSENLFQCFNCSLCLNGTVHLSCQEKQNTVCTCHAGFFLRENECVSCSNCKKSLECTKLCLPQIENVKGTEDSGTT
Experimental: (§1) To test binding to TNFR family members, target proteins were coated on ELISA plates at 1 μg/mL at 4° C. overnight. Plates were washed, blocked, and antibodies were added at indicated concentrations for 1 hour at RT. Positive control antibodies for each protein were used at ˜1 ug/mL. Antibodies were washed and detected with anti-human IgG HRP for 1 hour. Assay was developed using TMB substrate for 10 minutes. For cell-binding, human CD4+ T cells purified from buffy coats were cultured in flat-bottom plates with anti-CD3/CD28 for 24 hours. Cells were harvested and stained for viability, CD4, CD25 and FOXP3. Test antibody staining was detected using anti-human IgG APC. Binding titration of test antibodies was evaluated on CD4+CD25hiFOXP3+ regulatory T cells and plotted as percent binding.

[4] = target: T3, human TNFR2 expressed on cells (human, UniProt P20333 23-461); assay: cell binding on TNFR2-overexpressing (OE) cells
T3 construct: whole, on cells; also called hTNFR2 (cell); CHO-TNFR2
T3 sequence (looked up): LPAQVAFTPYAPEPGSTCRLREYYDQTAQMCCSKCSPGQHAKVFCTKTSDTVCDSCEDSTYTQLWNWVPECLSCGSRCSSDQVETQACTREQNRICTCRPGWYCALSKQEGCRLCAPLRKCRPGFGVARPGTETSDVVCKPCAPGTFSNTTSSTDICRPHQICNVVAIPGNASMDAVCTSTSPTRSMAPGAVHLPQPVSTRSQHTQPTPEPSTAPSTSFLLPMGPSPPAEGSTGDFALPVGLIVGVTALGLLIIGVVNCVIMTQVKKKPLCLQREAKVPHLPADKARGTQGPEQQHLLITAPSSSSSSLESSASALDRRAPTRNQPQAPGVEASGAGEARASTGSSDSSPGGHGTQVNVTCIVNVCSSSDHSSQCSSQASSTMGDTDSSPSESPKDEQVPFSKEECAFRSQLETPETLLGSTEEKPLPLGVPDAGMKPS

[5] = target: T3, human TNFR2 expressed on cells; assay: Primary Cell Affinity; binding titration on activated human Tregs, flow cytometry
Experimental: as §1

B1: humanized antibody h600-25-71 (antibody, V domains shown)
VH: EVQLVESGGGLVQPGGSLRLSCAASGIDLSSYAMGWVRQAPGKGLEWVGDISTSGNAYYATWVKGRFTISRDNSKNTLYLQMNSLRAEDTAVYYCARADYGGETYAFDPWGQGTLVTVSS
VL: DIQMTQSPSSLSASVGDRVTITCQASQSISSYLNWYQQKPGKAPKLLIYSASTLASGVPSRFSGSGSGTDFTLTISSLQPEDFATYYCQQGYSDSNIDNVFGGGTKVEIK
notes: also called Ab 25-71; clone 25-71
B1 was tested, and the “EC50 (read off the curve)” value [1] was about 0.1 nM, the EC50 [2] was 0.123 nM and the binding result [3] was “no binding (tested: about 67 nM)”. The Kd [4] was 0.12 nM and the Kd [5] was 0.047 nM.
